Residue numbers refer to the chain shown, from its start. One block for each binder: values may come before it.
Legend:
[1] = biological target: T1, native CEMIP/KIAA1199 expressed on the surface of human cancer cells (human, UniProt Q8WUJ3 31-1361); experiment: flow cytometry on MKN45 cells
T1 construct: Endogenous CEMIP of MKN45 gastric and N2LA lung cancer cells in flow cytometry; The same entry is used for CEMIP on exosomes of brain tropic MDA-MB231 cells in the brain slice assay; also called native cell surface CEMIP/KIAA1199; CEMIP on MKN45 and N2LA cells
T1 sequence: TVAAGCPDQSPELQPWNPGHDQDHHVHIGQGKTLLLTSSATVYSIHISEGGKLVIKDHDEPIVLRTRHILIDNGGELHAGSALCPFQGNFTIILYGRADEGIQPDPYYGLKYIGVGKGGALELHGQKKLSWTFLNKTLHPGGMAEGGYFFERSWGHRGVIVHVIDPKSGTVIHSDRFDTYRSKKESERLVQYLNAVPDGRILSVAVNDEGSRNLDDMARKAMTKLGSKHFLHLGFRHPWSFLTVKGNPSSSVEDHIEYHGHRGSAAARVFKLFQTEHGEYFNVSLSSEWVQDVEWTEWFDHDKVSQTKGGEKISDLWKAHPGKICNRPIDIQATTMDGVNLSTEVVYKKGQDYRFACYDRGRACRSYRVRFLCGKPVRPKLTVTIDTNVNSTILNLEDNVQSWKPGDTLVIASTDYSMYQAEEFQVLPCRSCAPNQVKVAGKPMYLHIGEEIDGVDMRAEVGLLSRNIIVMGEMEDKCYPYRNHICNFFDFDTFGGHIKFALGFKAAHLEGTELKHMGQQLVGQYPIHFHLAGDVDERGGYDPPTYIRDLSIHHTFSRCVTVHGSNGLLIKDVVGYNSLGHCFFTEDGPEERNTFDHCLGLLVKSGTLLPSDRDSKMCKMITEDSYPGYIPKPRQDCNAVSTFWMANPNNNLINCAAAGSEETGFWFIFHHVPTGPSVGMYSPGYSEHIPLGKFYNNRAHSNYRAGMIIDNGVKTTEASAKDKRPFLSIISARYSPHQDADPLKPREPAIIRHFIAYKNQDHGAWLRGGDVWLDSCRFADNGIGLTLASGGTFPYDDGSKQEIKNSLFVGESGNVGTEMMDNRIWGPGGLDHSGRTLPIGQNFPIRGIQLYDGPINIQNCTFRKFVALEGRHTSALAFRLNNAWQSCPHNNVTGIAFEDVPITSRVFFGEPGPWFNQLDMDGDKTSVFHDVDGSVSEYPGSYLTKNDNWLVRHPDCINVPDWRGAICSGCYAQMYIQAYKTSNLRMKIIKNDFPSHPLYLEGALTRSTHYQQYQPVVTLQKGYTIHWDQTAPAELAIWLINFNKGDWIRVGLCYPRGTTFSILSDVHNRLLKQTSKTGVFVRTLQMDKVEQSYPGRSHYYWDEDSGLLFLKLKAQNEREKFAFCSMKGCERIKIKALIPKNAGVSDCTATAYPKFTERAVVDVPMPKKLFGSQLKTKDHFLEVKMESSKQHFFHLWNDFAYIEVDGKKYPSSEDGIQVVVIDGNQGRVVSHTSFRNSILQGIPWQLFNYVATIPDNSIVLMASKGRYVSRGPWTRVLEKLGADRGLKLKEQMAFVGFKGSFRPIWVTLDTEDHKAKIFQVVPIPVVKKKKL

[2] = biological target: T2, purified KIAA1199/CEMIP protein (aa 1-649) (human, UniProt Q8WUJ3 31-649); experiment: ELISA on recombinant CEMIP, purified antibody
T2 construct: also called recombinant KIAA1199/CEMIP protein
T2 sequence: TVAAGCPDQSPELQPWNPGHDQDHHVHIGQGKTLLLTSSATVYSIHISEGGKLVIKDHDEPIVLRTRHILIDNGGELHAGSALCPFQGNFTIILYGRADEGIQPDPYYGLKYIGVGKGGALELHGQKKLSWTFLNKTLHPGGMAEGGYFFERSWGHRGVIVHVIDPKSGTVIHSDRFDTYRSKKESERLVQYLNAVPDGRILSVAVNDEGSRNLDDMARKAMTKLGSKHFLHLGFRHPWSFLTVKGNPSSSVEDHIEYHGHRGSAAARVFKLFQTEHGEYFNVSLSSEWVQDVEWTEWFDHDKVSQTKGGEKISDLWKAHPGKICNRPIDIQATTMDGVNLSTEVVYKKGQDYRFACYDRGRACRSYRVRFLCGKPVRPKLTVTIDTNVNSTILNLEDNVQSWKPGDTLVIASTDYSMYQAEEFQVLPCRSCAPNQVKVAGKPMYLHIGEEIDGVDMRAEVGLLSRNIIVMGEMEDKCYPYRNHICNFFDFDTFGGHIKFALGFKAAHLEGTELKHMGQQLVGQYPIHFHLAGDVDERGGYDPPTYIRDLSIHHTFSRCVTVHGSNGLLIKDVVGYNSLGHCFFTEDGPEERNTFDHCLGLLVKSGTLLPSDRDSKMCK

[3] = biological target: T1, native CEMIP/KIAA1199 expressed on the …; experiment: cell-based or functional assay

binding result [1]: binds | binding result [2]: binds
B1: 12A12 (cAb5776) (antibody, mouse IgG1, kappa, V domains shown)
VH: EVQLQQSGPELVKPGVSMKISCKASGYSFTAYTMNWVKQSHGENLEWIGLINPYNGGTTYNQKFKGKATLTVDKSSSTAYMELLSLTSEDSAVYYCASYDYGYAMDYWGQGTSVTVSS
VL: DVLMTQTPLSLPVSLGDQASISCRSSQSIVHRSGNTYLEWYLQKPGQSPKLLIYKVSNRFSGVPDRFSGSGSGTDFTLKISRVEAEDLGVYYCFQGSHVPWTFGGGTKLEIKR
notes: Mouse monoclonal antibody from a hybridoma (supernatant, later purified)

binding result [1]: binds | binding result [2]: binds
B2: 12D02 (cAb5775) (antibody, mouse IgG1, kappa, V domains shown)
VH: B1 VH with V16A
VL: B1 VL with S33N
notes: as for B1

binding result [1]: binds | binding result [2]: binds
B3: 13G04 (cAb5778) (antibody, mouse IgG1, kappa, V domains shown)
VH: EVHLQQSGPELVKPGASMKISCKASGYSFTAYTMNWVKQSHGKNLEWIGLINPYNGGTTYNQKFKGKATLTVDKSSSTAYMELLSLTSEDSAVYYCASYYGGRGWYFDVWGAGTSVTVSS
VL: DIVLTQSPASLAVSLGQRATISCRASKSVSTSGYSYVHWYQQKPGQPPKLLIYLASNLESGVPARFSGSGSGTDFTLNIHPVEEEDAATYYCQNSRELPYTFGGGTKLEMKR
notes: as for B1

binding result [1]: binds | binding result [2]: binds
B4: 12D08 (cAb5777) (antibody, mouse IgG2a, kappa, V domains shown)
VH: EVQLQQSGAELVKPGASVKLSCTASGFNIKDTYMHWVKQRPEQGLIWIGNIDPANGHTKYAPKFQGKATITADTSSNTAYLQLSSLTSEDTAVYYCARSNDYDVDFDYWGQGTTLTVSS
VL: DIVMSQSPSSLAVSAGEKVTMSCKSSQSLLNSRTRKNYLAWYQQKPGQSPKLLIYWASTRESGVPDRFTGSGSGTDFSLTISSVQAEDLAVYYCKQSYNLYTFGGGTKLEIKR
notes: as for B1

GFP+ parental MDA-MB231 cells on the slice, 3D organotypic brain slice assay, CEMIP-positive exosomes pre-incubated with antibody [3]: 6 fold decrease
B5: 07F11C02 (cAb4853) (antibody, mouse IgG2a, kappa, V domains shown)
VH: DVQLVESGGGLVQPGGSRKLSCAASGFAFSSFGMHWVRQAPERGLEWVAYISSASNTIYYADTVKGRFTISRDNPKSTLFLQMTSLRSEDTAIYYCAKRDWDLYAMDYWGQGTSVTVSS
VL: DIVMTQSQKFLSTSVGDRVTITCKASQNVGTAVAWYQQKPGQSPELLIYSASNRHTGVPARFTGSGSGTDFTLTITNMQSEDLADYFCQQYSSSPTFGGGTKLESKR

— patent US20230391890A1 (CORNELL UNIVERSITY, published 2023)
